Test results: article PMC9172074, “A microfluidic paper analytical device using capture aptamers for the detection of PfLDH in blood matrices”

Legend:
[1] = target: T1, rPfLDH (recombinant Plasmodium falciparum lactate dehydrogenase) (Plasmodium falciparum, UniProt Q76NM3 1-316); assay: paper capture, Malstat enzyme activity colorimetry; Zone 3, apparent Kd; PBS pH 7.4 (10 mM Na2HPO4, 1.8 mM KH2PO4 [printed KH2HPO4], 2.7 mM KCl, 137 mM NaCl), room temperature, 30 min; pL1: 20 mM Tris, 50 mM NaCl, 5 mM KCl, 5 mM MgCl2, 0.01% Tween 20, pH 8.0; details: protein: recombinant; chain copies: 4; label: 5' biotin
[2] = target: T1, rPfLDH (recombinant Plasmodium …); assay: paper capture, Malstat enzyme activity colorimetry; Zone 1, apparent Kd (fit 23.643 ± 10.806); PBS pH 7.4 (10 mM Na2HPO4, 1.8 mM KH2PO4 [printed KH2HPO4], 2.7 mM KCl, 137 mM NaCl), room temperature, 30 min; pL1: 20 mM Tris, 50 mM NaCl, 5 mM KCl, 5 mM MgCl2, 0.01% Tween 20, pH 8.0; details: protein: recombinant; chain copies: 4; label: 5' biotin

B1: rLDH7 (ssDNA)
DNA: GCCTGTTGTGAGCCTCCTAACCCAGAATAGGGACTGCTCGGGATTGCGGATGAGTCTGGGTGGGACATGGCATGCTTATTCTTGTCTCCC
Q: For B1, which Kd [1] is on record?
A: The Kd was 11.4 ± 5 nM.

Q: And the Kd [2]?
A: The Kd was 24 ± 11 nM.
